Source: patent US20050148516A1

Target: mature type GnT-V
Experiment: cell-based or functional assay

## γ-secretase (enzyme)
  GnT-V activity in culture solution, PS-1 ΔE9 cells against control cells: 4 fold
  ratio of the GnT-V activity in culture solution (extracellular) to that in the cell, PS-1 ΔE9 cells: 3.5
  ratio of the GnT-V activity in culture solution (extracellular) to that in the cell, PS-1 ΔE9 cells against control cells: 3 fold
  ratio of the GnT-V activity in culture solution (extracellular) to that in the cell, control cells without high expression of variant presenilin-1: 1.2
